This note sets out measurements from paper PMC9204233, “Characterization of Catechol-1,2-Dioxygenase (Acdo1p) From Blastobotrys raffinosifermentans and Investigation of Its Role in the Catabolism of Aromatic Compounds” (Frontiers in Microbiology, 2022).

Series [1] has as its target Blastobotrys raffinosifermentans catechol-1,2-dioxygenase with C-terminal 6His-tag (Acdo1-6hp) (Blastobotrys raffinosifermentans LS3). Briefly: SEC; gel filtration on Superdex 200; 50 mM Tris (pH 8), 0.15 M NaCl; flow 1 mL/min; mass against a calibration curve (blue dextran, ferritin, catalase, bovine albumin, RNAse A, vitamin B12); 'indicative' molecular mass. (Size exclusion chromatography separates by hydrodynamic size, large species first.)

The subject of the next series is Oc1ccccc1O. Kind of series: purified protein. The note with it: 50 mM Tris-HCl pH 7.5, ~20 °C.
The test system of the next series is Oc1ccc(O)c(O)c1. Briefly: purified protein. The note with it: pH 7.5, 20 °C.
Series [2] deals with T1, Acdo1-6hp (Acdo1p, catechol-1,2-dioxygenase) (Blastobotrys raffinosifermentans, UniProt A0A060T9I8).
T1 construct: expressed in B. raffinosifermentans G1212, HisTrap purified
Kind of series: spectrophotometric, 2-hydroxymuconic acid formation at […] nm. Type of series: biochemical. The note with it: 50 mM Tris-HCl pH 7.5, ~20 °C.

T1 sequence (A0A060T9I8 1-334 limits assumed): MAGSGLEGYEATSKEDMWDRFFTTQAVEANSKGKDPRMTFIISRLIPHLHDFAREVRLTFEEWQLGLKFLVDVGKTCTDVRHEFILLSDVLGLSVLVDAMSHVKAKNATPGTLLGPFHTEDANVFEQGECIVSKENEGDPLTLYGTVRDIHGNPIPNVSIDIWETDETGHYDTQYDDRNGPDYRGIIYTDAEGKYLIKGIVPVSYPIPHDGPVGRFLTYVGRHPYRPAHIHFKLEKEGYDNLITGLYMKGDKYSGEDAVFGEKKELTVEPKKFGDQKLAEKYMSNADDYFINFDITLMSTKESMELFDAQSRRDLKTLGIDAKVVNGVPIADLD

As a reminder, the stoichiometry N is the number of molecules, sites or subunits per partner or assembly. As for “Blastobotrys raffinosifermentans catechol-1,2-dioxygenase with C-terminal 6His-tag (Acdo1-6hp) (enzyme)”, the stoichiometry N in series [1] was determined as 2.
A word on the Km: it is the concentration of substrate that gives half-maximal velocity. What is called kcat is the maximal rate divided by the concentration of active sites. Usually kcat/Km stands for the turnover number divided by the Michaelis constant. Turning to “Acdo1-6hp (Acdo1p, catechol-1,2-dioxygenase) (Blastobotrys raffinosifermentans)”, in the series with Oc1ccccc1O, the Km was determined as 4 ± 1 µM, the kcat stood at 15.6 ± 0.4 s⁻¹ and the kcat/Km amounted to 3.95e+06 ± 930000 M⁻¹ s⁻¹. In addition, in the series on Oc1ccc(O)c(O)c1, the Km worked out at 8 ± 2 µM, the kcat was 17 ± 3.5 s⁻¹ and the kcat/Km was found to be 2.13e+06 ± 971000 M⁻¹ s⁻¹.
For `Oc1cccc(O)c1O` [pyrogallol], in series [2], the Km was 100 ± 20 µM.
